Results reported in patent US20130136748A1 (Ablynx, published 2013).

What was measured:
[1] = biological target: T1, human HER3-Fc (R&D Systems, 348-RB) (human, UniProt P21860 20-643); assay: HRG blocking alphascreen
T1 construct: Bought; also called hHER3-Fc; Fc-HER3; Fc part of the bought chimera not given, not described

[2] = biological target: T1, human HER3-Fc (R&D Systems, 348-RB); assay: HRG competition alphascreen

fold lower potency than parental 04C07 [1]: 18 fold
IC50 [2]: 4.91 nM
B1: HER3MS00045 (VHH)
VHH: EVQLVESGGGLVQPGGSLRLSCAASGFTFSSYPMSWVRQAPGKGPEWVSTVSPGGITTSYADSVKGRFTISRDNSKNTLYLQMNSLRPEDTAVYYCARDLNNRGQGTLVTVSS
notes: 04C07 basic + A46E + L93A; also called HER3MS0045
